Results as given in article PMC4519979 (Biochemistry, 2015).
Positions count from the first letter of the chain named. Names and notes keep the numbering of the source.

B1: MscS YFF L109W (complex, E. coli, UniProt P0C0S1 1-286, looked up)
chain: MEDLNVVDSINGAGSYLVANQALLLSYAVNIVAALAIIIVGLIIARMISNAVNRLMISRKIDATVADFLSALVRYGIIAFTLIAALGRVGVQTASVIAVLGAAGLAVGWALQGSLSNLAAGVLLVMFRPFRAGEYVDLGGVAGTVLSVQIFSTTMRTADGKIIVIPNGKIIAGNIINFSREPVRRNEFIIGVAYDSDIDQVKQILTNIIQSEDRILKDREMTVRLNELGASSINFVVRVFSNSGDLQNVYFDVLERIKREFDAAGISFPYPQMDVNFKRVKEDKAA
B2: wild-type (WT) MscS (complex, E. coli)
chain: B1 chain with Y16W, W109L, F240W, F251W
B3: MscS YFF (complex, E. coli)
chain: B1 chain with W109L
B4: MscS YFF R88W (complex, E. coli, UniProt P0C0S1 1-286, looked up)
chain: B1 chain with R88W, W109L
B5: MscS YFF G90W (complex, E. coli)
chain: B1 chain with G90W, W109L
B6: MscS YFF I97W (complex, E. coli, UniProt P0C0S1 1-286, looked up)
chain: B1 chain with I97W, W109L
B7: MscS YFF A98W (complex, E. coli, UniProt P0C0S1 1-286, looked up)
chain: B1 chain with A98W, W109L
B8: MscS YFF A103W (complex, E. coli, UniProt P0C0S1 1-286, looked up)
chain: B1 chain with A103W, W109L
B9: MscS YFF T93W (complex, E. coli)
chain: B1 chain with T93W, W109L
B10: MscS YFF G113W (complex, E. coli, UniProt P0C0S1 1-286, looked up)
chain: B1 chain with W109L, G113W
B11: MscS YFF L105W (complex, E. coli, UniProt P0C0S1 1-286, looked up)
chain: B1 chain with L105W, W109L
B12: MscS YFF A94W (complex, E. coli)
chain: B1 chain with A94W, W109L
B13: MscS YFF G101W (complex, E. coli, UniProt P0C0S1 1-286, looked up)
chain: B1 chain with G101W, W109L

Target: the molecule itself
Assay: FRET or BRET; homo-FRET between Trp residues of different subunits read by steady-state fluorescence anisotropy; heptameric and dissociated fractions from SEC, DDM-solubilised; excitation 295 nm, emission 340-360 nm

| Protein | binding result |
| --- | --- |
| B1 | binds |

Target: the molecule itself
Assay: native gel or EMSA; BN-PAGE with Western blot for the His tag; membranes (30 ug protein) solubilised in PBS pH 7.4 with 1% DDM, 2.8 M urea, 1 mM EDTA, 30 min, room temperature; heptamer to monomers

| Protein | stoichiometry N |
| --- | --- |
| B2 | 7 |
| B3 | 7 |

Target: the molecule itself
Assay: SEC; HiPrep Superdex 200 16/600 after Ni-NTA; 0.03% DDM, 50 mM sodium phosphate pH 7.5, 150 mM NaCl; ratio of heptamers to monomers

| Protein | binding result |
| --- | --- |
| B4 | binds |
| B5 | binds |
| B6 | binds |
| B7 | binds |

Target: the molecule itself
Assay: native gel or EMSA; BN-PAGE after the fluorescence measurements of purified MscS reconstituted into DOPC bilayers (molar ratio 1:100; 40 mM HEPES pH 7.2, 100 mM KCl, 1 mM EGTA)

| Protein | stoichiometry N |
| --- | --- |
| B8 | 7 |
| B9 | 7 |
| B10 | 7 |
| B11 | 7 |
| B12 | 7 |
| B13 | 7 |
